Columns and labels:
human FcγRI = target: T1, human FcγRI (human, UniProt P12314 16-288, limits assumed); assay: Biacore (SPR), receptor loaded on the chip, antibody 0.411 to 33.33 nM as analyte, 1:1 affinity analysis (FIG. 9)
T1 construct: Biacore partner; also called FcγR1

human FcRn = human FcRn (human, UniProt P55899 24-297; P61769 21-119, limits assumed); assay: Biacore (SPR), steady state analysis, pH 6.0; Relative Binding +++
CD32A (167His) = target: T2, CD32A (167His); assay: Biacore (SPR), receptor loaded on the chip, antibody 296.3 to 24000 nM as analyte, steady state analysis (FIG. 9)
T2 construct: also called FcγRIIA 167His; not shown: The vendor's tag
T2 chain: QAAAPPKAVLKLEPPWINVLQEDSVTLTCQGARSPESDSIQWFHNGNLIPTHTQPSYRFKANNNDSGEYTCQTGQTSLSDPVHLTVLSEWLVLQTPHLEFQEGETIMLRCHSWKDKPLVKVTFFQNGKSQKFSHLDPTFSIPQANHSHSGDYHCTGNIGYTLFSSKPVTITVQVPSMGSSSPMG

CD32B = target: T3, CD32B (human, UniProt P31994); assay: as above
T3 construct: also called FcγRIIB
T3 sequence (receptor, looked up): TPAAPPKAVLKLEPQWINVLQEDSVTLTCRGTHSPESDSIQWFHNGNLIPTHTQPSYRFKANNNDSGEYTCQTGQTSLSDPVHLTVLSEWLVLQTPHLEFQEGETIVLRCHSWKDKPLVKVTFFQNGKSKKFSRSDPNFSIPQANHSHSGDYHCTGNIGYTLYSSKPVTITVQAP

CD16A (176 Phe) = target: T4, CD16A (176 Phe) (human, UniProt P08637); assay: Biacore (SPR), receptor loaded on the chip, antibody as analyte, steady state analysis (FIG. 9)
T4 construct: also called FcγRIIIA 176Phe

CD16A (176 Val) = target: T5, CD16A (176 Val) (human, UniProt P08637); assay: as above
T5 construct: also called FcγRIIIA 176 Val

[1] = target: MICA antigen of Table 2 (purified 6×His-MICA*08 or 6×His-MICA*04 protein); assay: BLI (ForteBio Octet Red96); mAb captured on anti-mouse IgG Fc sensors, 6×His-MICA in solution, 1:1 model
Protocol: Affinity kinetics was determined on a ForteBio Octet Red96 analyzer. […] Sensors were washed in assay buffer and then incubated with purified 6×His-MICA*08 or 6×His-MICA*04 proteins (100 nM), in 2-fold dilution series for 5 minutes in assay buffer to determine association kinetics of the antibody with the protein antigen. Sensors were then incubated in assay buffer for 10 minutes to determine dissociation kinetics. The resulting kinetics parameters were calculated with ForteBio analysis suite 8.0 using a 1:1 model.

[2] = target: T6, Recombinant MICA*04 protein; assay: ELISA on coated recombinant antigen (1 µg/ml), goat anti-mouse IgG-HRP, OD 450 nm
T6 construct: Coated on ELISA plates
T6 sequence (Q29983 whole entry, species assumed, looked up): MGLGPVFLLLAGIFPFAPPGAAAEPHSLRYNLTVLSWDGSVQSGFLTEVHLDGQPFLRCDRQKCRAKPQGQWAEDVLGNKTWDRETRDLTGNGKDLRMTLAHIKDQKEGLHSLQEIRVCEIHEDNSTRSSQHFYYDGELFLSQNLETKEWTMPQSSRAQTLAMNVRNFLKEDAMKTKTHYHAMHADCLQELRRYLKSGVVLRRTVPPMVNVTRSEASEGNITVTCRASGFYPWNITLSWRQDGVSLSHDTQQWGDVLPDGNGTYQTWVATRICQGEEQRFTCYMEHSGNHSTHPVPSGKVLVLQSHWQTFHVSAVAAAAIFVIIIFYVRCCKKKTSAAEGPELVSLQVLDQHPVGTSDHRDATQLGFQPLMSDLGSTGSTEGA
Protocol: (§1) Recombinant MICA*01, MICA*02, MICA*04, MICA*08, MICA*09, and MICB proteins were diluted to 1 μg/ml in 50 mM sodium carbonate buffer, pH 9.6, and coated onto high binding 96-well microplates (Corning #9018), 100 ng in 100 μl per well. The following morning, coated ELISA plates were washed three times with TBS-Tween-20, pH 7.4 and then blocked in SuperBlock T20 Blocking Buffer (Pierce #37536). After blocking, ELISA plates were washed once with TBS-T and incubated with serially diluted anti-MICA antibody ([…]) for approximately two hours at room temperature. Following the incubation, ELISA plates were washed three times with TBS-T and then incubated with Goat anti-Mouse IgG (H+L)-HRP conjugate (ThermoFisher Scientific #626520) for 45 minutes at room temperature with shaking (˜400 rpm). After the incubation, ELISA plates were washed three times with TBS-T and incubated with Super Sensitive Liquid Substrate TMB (Sigma #T4444), 100 μl per well, until color development was sufficient. The reaction was stopped with 1N sulfuric acid, 100 μl per well. Optical density (OD) values were measured at 450 nm using a microplate reader.

[3] = target: T7, Recombinant MICA*08 protein; assay: as above
T7 construct: Coated on ELISA plates
T7 sequence (Q29983 whole entry, species assumed, looked up): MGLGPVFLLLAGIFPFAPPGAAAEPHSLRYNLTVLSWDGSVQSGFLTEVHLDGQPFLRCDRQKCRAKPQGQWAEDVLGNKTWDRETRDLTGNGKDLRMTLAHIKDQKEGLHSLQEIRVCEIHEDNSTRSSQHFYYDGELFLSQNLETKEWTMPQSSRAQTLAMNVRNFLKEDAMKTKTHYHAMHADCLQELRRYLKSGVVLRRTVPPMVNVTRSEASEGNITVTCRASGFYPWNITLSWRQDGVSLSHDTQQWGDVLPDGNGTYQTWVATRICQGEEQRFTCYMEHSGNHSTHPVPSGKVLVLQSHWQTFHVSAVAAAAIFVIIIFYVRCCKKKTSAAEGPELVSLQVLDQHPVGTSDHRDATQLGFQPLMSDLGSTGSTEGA
Protocol: as §1

[4] = target: T8, Recombinant MICA*09 protein; assay: as above
T8 construct: Coated on ELISA plates
T8 sequence (Q29983 whole entry, species assumed, looked up): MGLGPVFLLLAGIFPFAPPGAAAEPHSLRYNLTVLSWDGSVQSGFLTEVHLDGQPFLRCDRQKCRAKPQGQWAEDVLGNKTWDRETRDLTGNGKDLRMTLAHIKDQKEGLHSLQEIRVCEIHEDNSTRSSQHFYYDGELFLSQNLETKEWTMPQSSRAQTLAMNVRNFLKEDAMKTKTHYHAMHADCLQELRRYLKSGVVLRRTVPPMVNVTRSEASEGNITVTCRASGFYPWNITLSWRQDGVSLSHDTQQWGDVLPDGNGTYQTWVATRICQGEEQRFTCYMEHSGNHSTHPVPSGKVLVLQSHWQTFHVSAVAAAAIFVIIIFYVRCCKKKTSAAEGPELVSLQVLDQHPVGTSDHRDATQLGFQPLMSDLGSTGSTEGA
Protocol: as §1

[5] = target: T9, Recombinant MICA*02 protein; assay: as above
T9 construct: Coated on ELISA plates
T9 sequence (Q29983 whole entry, species assumed, looked up): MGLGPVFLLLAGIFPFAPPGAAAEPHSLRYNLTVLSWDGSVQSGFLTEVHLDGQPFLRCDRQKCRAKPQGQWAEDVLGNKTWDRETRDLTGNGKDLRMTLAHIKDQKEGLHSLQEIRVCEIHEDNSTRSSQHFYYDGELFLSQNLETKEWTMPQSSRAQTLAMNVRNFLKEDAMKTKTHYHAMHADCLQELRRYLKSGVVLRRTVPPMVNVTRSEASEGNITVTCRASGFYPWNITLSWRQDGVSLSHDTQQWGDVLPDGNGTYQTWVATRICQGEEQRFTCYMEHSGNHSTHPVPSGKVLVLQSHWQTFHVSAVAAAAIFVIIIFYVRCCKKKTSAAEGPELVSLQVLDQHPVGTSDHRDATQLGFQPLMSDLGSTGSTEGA
Protocol: as §1

Recombinant MICB protein = target: T10, Recombinant MICB protein (UniProt Q29980 23-298, limits assumed); assay: as above
T10 construct: Coated on ELISA plates
T10 sequence (looked up): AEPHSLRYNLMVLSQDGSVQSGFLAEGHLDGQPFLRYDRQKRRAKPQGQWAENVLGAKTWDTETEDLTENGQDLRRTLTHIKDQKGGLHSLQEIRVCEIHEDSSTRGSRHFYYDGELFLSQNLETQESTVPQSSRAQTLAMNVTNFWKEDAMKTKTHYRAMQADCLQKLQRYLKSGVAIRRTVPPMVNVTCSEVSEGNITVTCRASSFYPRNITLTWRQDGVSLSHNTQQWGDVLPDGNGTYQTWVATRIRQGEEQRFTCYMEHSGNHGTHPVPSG
Protocol: as §1

[6] = target: T11, Recombinant MICA*01 protein (Homo sapiens (Human), UniProt Q29983 24-307); assay: as above
T11 construct: Coated on ELISA plates
T11 sequence: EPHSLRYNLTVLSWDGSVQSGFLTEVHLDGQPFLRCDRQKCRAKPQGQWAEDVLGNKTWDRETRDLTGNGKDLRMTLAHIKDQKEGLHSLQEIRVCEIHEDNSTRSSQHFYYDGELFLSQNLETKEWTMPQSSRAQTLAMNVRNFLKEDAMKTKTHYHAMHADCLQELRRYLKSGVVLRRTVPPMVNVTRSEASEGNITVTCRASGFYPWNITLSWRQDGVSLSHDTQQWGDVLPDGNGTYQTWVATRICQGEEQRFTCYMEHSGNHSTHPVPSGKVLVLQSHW
Protocol: as §1

human FcRn, sequence (P55899 24-297 limits assumed, chain 1 of 2): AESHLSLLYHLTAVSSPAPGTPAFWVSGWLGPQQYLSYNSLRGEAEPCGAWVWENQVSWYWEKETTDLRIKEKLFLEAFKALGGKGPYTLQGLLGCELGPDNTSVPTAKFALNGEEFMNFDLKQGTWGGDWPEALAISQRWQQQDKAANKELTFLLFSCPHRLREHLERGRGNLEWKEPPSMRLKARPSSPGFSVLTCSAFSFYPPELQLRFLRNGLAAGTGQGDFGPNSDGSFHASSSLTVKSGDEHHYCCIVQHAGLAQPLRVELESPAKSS
human FcRn, sequence (P61769 21-119 limits assumed, chain 2 of 2): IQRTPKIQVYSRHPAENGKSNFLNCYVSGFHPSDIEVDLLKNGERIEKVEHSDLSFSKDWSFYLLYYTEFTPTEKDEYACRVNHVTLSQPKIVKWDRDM
T1 sequence (P12314 16-288 limits assumed): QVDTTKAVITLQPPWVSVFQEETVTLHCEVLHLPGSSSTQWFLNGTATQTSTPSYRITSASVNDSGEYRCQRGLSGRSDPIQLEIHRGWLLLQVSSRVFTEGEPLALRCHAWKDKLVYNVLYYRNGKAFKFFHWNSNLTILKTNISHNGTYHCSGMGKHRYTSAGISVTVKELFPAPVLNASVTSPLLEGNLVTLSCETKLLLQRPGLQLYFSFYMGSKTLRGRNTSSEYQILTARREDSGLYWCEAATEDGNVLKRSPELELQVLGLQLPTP
T4 sequence (P08637 17-208 limits assumed): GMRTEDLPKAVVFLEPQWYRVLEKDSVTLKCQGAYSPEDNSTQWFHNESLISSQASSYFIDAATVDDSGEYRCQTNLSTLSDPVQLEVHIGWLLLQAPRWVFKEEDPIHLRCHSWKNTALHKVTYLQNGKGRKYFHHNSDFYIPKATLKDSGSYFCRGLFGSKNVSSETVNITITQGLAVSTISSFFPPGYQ
T5 sequence (P08637 17-208 F176V limits assumed): as the sequence (P08637 17-208 limits assumed) above, with F160V counted along it

Binder	binding result (human FcγRI)	Kd (human FcRn)	binding result (CD32A (167His))	binding result (CD32B)	binding result (CD16A (176 Phe))	binding result (CD16A (176 Val))	Kd [1]	koff [1]	kon [1]	EC50 (read off the curve) [2]	EC50 (read off the curve) [3]	EC50 (read off the curve) [4]	EC50 (read off the curve) [5]	EC50 (read off the curve) (Recombinant MICB protein)	EC50 (read off the curve) [6]
anti-MICA/B 3F9H1L3L wild type antibody (antibody, human IgG1, kappa, also called CLN-619; CLN619; copies: 2 + 2) heavy: not shown light: DIVMTQSPLSLPVTPGEPASISCRSSKSLLHSNLNTYLYWFLQKPGQSPQILIYRMSNLASGVPDRFSGSGSGTAFTLKISRVEAEDVGVYYCMQHLEYPFTFGPGTKLEIKRTVAAPSVFIFPPSDEQLKSGTASVVCLLNNFYPREAKVQWKVDNALQSGNSQESVTEQDSKDSTYSLSSTLTLSKADYEKHKVYACEVTHQGLSSPVTKSFNRGEC	binds	489 nM	binds	binds	binds	binds	–	–	–	–	–	–	–	–	–
anti-MICA/B 3F9H1L3L afucosylated antibody (antibody, human IgG1, kappa, afucosylated Fc N-glycan (Fc glycosylation site Asn 297, EU numbering), made with GlymaxX technology, It differs only by lacking fucose on the Fc glycan; also called GLYMAXX; 3F9H1L3L GLYMAXX; copies: 2 + 2) heavy: not shown light: DIVMTQSPLSLPVTPGEPASISCRSSKSLLHSNLNTYLYWFLQKPGQSPQILIYRMSNLASGVPDRFSGSGSGTAFTLKISRVEAEDVGVYYCMQHLEYPFTFGPGTKLEIKRTVAAPSVFIFPPSDEQLKSGTASVVCLLNNFYPREAKVQWKVDNALQSGNSQESVTEQDSKDSTYSLSSTLTLSKADYEKHKVYACEVTHQGLSSPVTKSFNRGEC	binds	468 nM	binds	binds	binds	binds	–	–	–	–	–	–	–	–	–
anti-MICA/B 3F9H1L3L antibody with the two heavy chain S239D and I332E mutations (antibody, human IgG1, kappa, also called 3F9HIL3L S239D and I332E; CLN-619 DM; copies: 2 + 2) heavy: not shown light: DIVMTQSPLSLPVTPGEPASISCRSSKSLLHSNLNTYLYWFLQKPGQSPQILIYRMSNLASGVPDRFSGSGSGTAFTLKISRVEAEDVGVYYCMQHLEYPFTFGPGTKLEIKRTVAAPSVFIFPPSDEQLKSGTASVVCLLNNFYPREAKVQWKVDNALQSGNSQESVTEQDSKDSTYSLSSTLTLSKADYEKHKVYACEVTHQGLSSPVTKSFNRGEC	binds	504 nM	binds	binds	binds	binds	–	–	–	–	–	–	–	–	–
16F10.C12 (antibody, V domains shown, Mouse monoclonal: captured on anti-mouse IgG Fc sensors) VH: EVQLQESGPGLVAPSQSLSITCTVSGFSLTAFGVNWVRQPPGKGLEWLGMIWGDGNTDYNSTLRSRLSISKDNSKSQVFLKLNSLQTDDTARYFCARETYYGNYAGLGYWGQGTLVTVSA VL: QIVLTQSPAIMSASIGERVTMTCTASSSVSSNYLHWYQQKPRSSPKLWIYTTSNLASGVPTRFSGSGSGTSYSLTISSMEAEDAATYYCHQFHRSPFTFGSGTKLEIK	–	–	–	–	–	–	6.45 nM	0.000548 s⁻¹	93300 M⁻¹ s⁻¹	–	–	–	–	–	–
3F9.E4 (antibody, V domains shown, Mouse monoclonal: captured on anti-mouse IgG Fc sensors and detected with anti-mouse IgG; also called 3F9 antibody; anti-MICA/B mAb) VH: EVQLQESGEGLVKPGGSLKLSCAASGFTFSNYAMSWVRQTPEKRLEWVAYISPGGDYIYYADTVKGRFTISRDNARNTLYLQMSSLKSEDTAMYYCTTDRRHYGSYAMDYWGQGISVTVSS VL: DIVMTQAAPSVPVTPGESVSISCRSSKSLLHSNGNTYLYWFLQRPGQSPQLLIYRMSNLASGVPDRFSGSGSGTAFTLRISRVEAEDVGVYYCMQHLEYPFTFGSGTKLEIK	–	–	–	–	–	–	1.18 nM	0.000421 s⁻¹	383000 M⁻¹ s⁻¹	~0.03 µg/mL	~0.03 µg/mL	~0.03 µg/mL	~0.03 µg/mL	~0.03 µg/mL	~0.03 µg/mL
